# Measurements: ChEMBL document CHEMBL1649237, “IND-6, a highly divergent IND-type metallo-beta-lactamase from Chryseobacterium indologenes strain 597 isolated in Burkina Faso” (2009)
# How the values were obtained:
# [1] = substrate: C[C@@H](O)[C@H]1C(=O)N2C(C(=O)O)=C(S[C@@H]3CN[C@H](C(=O)N(C)C)C3)[C@H](C)[C@H]12; assay: (§1) Ratio of Kcat to Km for Chryseobacterium meningosepticum CCUG 4310 beta-lactamase BlaB1 expressed in Escherichia coli DH5alpha by Michaelis-Menten equation; details: Elizabethkingia meningoseptica
# [2] = substrate: O=C(Cc1cccs1)N[C@@H]1C(=O)N2C(C(=O)O)=C(/C=C/c3ccc([N+](=O)[O-])cc3[N+](=O)[O-])CS[C@H]12; assay: as §1; details: Elizabethkingia meningoseptica
# [3] = substrate: CC1(C)S[C@@H]2[C@H](NC(=O)Cc3ccccc3)C(=O)N2[C@H]1C(=O)O; assay: as §1; details: Elizabethkingia meningoseptica
# [4] = substrate: CC(C)(O/N=C(\C(=O)N[C@@H]1C(=O)N2C(C(=O)[O-])=C(C[n+]3ccccc3)CS[C@H]12)c1csc(N)n1)C(=O)O; assay: as §1; details: Elizabethkingia meningoseptica
# [5] = substrate: CC(=O)OCC1=C(C(=O)O)N2C(=O)[C@@H](NC(=O)Cc3cccs3)[C@H]2SC1; assay: as §1; details: Elizabethkingia meningoseptica
# [6] = substrate: CO/N=C(\C(=O)N[C@@H]1C(=O)N2C(C(=O)O)=C(COC(C)=O)CS[C@H]12)c1csc(N)n1; assay: as §1; details: Elizabethkingia meningoseptica
# [7] = substrate: CC1(C)S[C@@H]2[C@H](NC(=O)C(C(=O)O)c3ccccc3)C(=O)N2[C@H]1C(=O)O; assay: as §1; details: Elizabethkingia meningoseptica
# [8] = substrate: C[C@@H](O)[C@H]1C(=O)N2C(C(=O)O)=C(SCCNC=N)C[C@H]12; assay: as §1; details: Elizabethkingia meningoseptica
# [9] = substrate: CO/N=C(\C(=O)N[C@@H]1C(=O)N2C(C(=O)[O-])=C(C[N+]3(C)CCCC3)CS[C@H]12)c1csc(N)n1; assay: as §1; details: Elizabethkingia meningoseptica
# [10] = substrate: CO/N=C(\C(=O)N[C@@H]1C(=O)N2C(C(=O)O)=C(COC(N)=O)CS[C@H]12)c1ccco1; assay: as §1; details: Elizabethkingia meningoseptica
# [11] = substrate: O=C(Cc1cccs1)N[C@@H]1C(=O)N2C(C(=O)[O-])=C(C[n+]3ccccc3)CS[C@H]12; assay: as §1; details: Elizabethkingia meningoseptica
# [12] = substrate: C[C@@H](O)[C@H]1C(=O)N2C(C(=O)O)=C(S[C@@H]3CN[C@H](C(=O)N(C)C)C3)[C@H](C)[C@H]12; assay: (§2) Ratio of Kcat to Km for Chryseobacterium indologenes 597 metallo-beta-lactamase IND-2 expressed in Escherichia coli DH5alpha by Michaelis-Menten equation
# [13] = substrate: CC1(C)S[C@@H]2[C@H](NC(=O)Cc3ccccc3)C(=O)N2[C@H]1C(=O)O; assay: as §2
# [14] = substrate: CC(C)(O/N=C(\C(=O)N[C@@H]1C(=O)N2C(C(=O)[O-])=C(C[n+]3ccccc3)CS[C@H]12)c1csc(N)n1)C(=O)O; assay: as §2
# [15] = substrate: CC(=O)OCC1=C(C(=O)O)N2C(=O)[C@@H](NC(=O)Cc3cccs3)[C@H]2SC1; assay: as §2
# [16] = substrate: CO/N=C(\C(=O)N[C@@H]1C(=O)N2C(C(=O)O)=C(COC(C)=O)CS[C@H]12)c1csc(N)n1; assay: as §2
# [17] = substrate: C[C@@H](O)[C@H]1C(=O)N2C(C(=O)O)=C(SCCNC=N)C[C@H]12; assay: as §2
# [18] = substrate: CO/N=C(\C(=O)N[C@@H]1C(=O)N2C(C(=O)[O-])=C(C[N+]3(C)CCCC3)CS[C@H]12)c1csc(N)n1; assay: as §2
# [19] = substrate: CC1=C(C(=O)O)N2C(=O)[C@@H](NC(=O)[C@H](N)c3ccccc3)[C@H]2SC1; assay: (§3) Activity at Chryseobacterium indologenes 597 metallo-beta-lactamase IND-6 expressed in Escherichia coli DH5alpha by Michaelis-Menten equation
# [20] = substrate: C[C@@H](O)[C@H]1C(=O)N2C(C(=O)O)=C(S[C@@H]3CN[C@H](C(=O)N(C)C)C3)[C@H](C)[C@H]12; assay: as §3
# [21] = substrate: O=C(Cc1cccs1)N[C@@H]1C(=O)N2C(C(=O)O)=C(/C=C/c3ccc([N+](=O)[O-])cc3[N+](=O)[O-])CS[C@H]12; assay: as §3
# [22] = substrate: CC1(C)S[C@@H]2[C@H](NC(=O)Cc3ccccc3)C(=O)N2[C@H]1C(=O)O; assay: as §3
# [23] = substrate: CC(C)(O/N=C(\C(=O)N[C@@H]1C(=O)N2C(C(=O)[O-])=C(C[n+]3ccccc3)CS[C@H]12)c1csc(N)n1)C(=O)O; assay: as §3
# [24] = substrate: CC(=O)OCC1=C(C(=O)O)N2C(=O)[C@@H](NC(=O)Cc3cccs3)[C@H]2SC1; assay: as §3
# [25] = substrate: CO/N=C(\C(=O)N[C@@H]1C(=O)N2C(C(=O)O)=C(COC(C)=O)CS[C@H]12)c1csc(N)n1; assay: as §3
# [26] = substrate: CC1(C)S[C@@H]2[C@H](NC(=O)C(C(=O)O)c3ccccc3)C(=O)N2[C@H]1C(=O)O; assay: as §3
# [27] = substrate: C[C@@H](O)[C@H]1C(=O)N2C(C(=O)O)=C(SCCNC=N)C[C@H]12; assay: as §3
# [28] = substrate: CC1(C)S[C@@H]2[C@H](NC(=O)[C@H](N)c3ccc(O)cc3)C(=O)N2[C@H]1C(=O)O; assay: as §3
# [29] = substrate: CO/N=C(\C(=O)N[C@@H]1C(=O)N2C(C(=O)[O-])=C(C[N+]3(C)CCCC3)CS[C@H]12)c1csc(N)n1; assay: as §3
# [30] = substrate: CO/N=C(\C(=O)N[C@@H]1C(=O)N2C(C(=O)O)=C(COC(N)=O)CS[C@H]12)c1ccco1; assay: as §3
# [31] = substrate: O=C(Cc1cccs1)N[C@@H]1C(=O)N2C(C(=O)[O-])=C(C[n+]3ccccc3)CS[C@H]12; assay: as §3
# [32] = substrate: CC1=C(C(=O)O)N2C(=O)[C@@H](NC(=O)[C@H](N)c3ccccc3)[C@H]2SC1; assay: (§4) Ratio of Kcat to Km for Chryseobacterium indologenes 597 metallo-beta-lactamase IND-6 expressed in Escherichia coli DH5alpha by Michaelis-Menten equation
# [33] = substrate: C[C@@H](O)[C@H]1C(=O)N2C(C(=O)O)=C(S[C@@H]3CN[C@H](C(=O)N(C)C)C3)[C@H](C)[C@H]12; assay: as §4
# [34] = substrate: O=C(Cc1cccs1)N[C@@H]1C(=O)N2C(C(=O)O)=C(/C=C/c3ccc([N+](=O)[O-])cc3[N+](=O)[O-])CS[C@H]12; assay: as §4
# [35] = substrate: CC1(C)S[C@@H]2[C@H](NC(=O)Cc3ccccc3)C(=O)N2[C@H]1C(=O)O; assay: as §4
# [36] = substrate: CC(C)(O/N=C(\C(=O)N[C@@H]1C(=O)N2C(C(=O)[O-])=C(C[n+]3ccccc3)CS[C@H]12)c1csc(N)n1)C(=O)O; assay: as §4
# [37] = substrate: CC(=O)OCC1=C(C(=O)O)N2C(=O)[C@@H](NC(=O)Cc3cccs3)[C@H]2SC1; assay: as §4
# [38] = substrate: CO/N=C(\C(=O)N[C@@H]1C(=O)N2C(C(=O)O)=C(COC(C)=O)CS[C@H]12)c1csc(N)n1; assay: as §4
# [39] = substrate: CC1(C)S[C@@H]2[C@H](NC(=O)C(C(=O)O)c3ccccc3)C(=O)N2[C@H]1C(=O)O; assay: as §4
# [40] = substrate: C[C@@H](O)[C@H]1C(=O)N2C(C(=O)O)=C(SCCNC=N)C[C@H]12; assay: as §4
# [41] = substrate: CC1(C)S[C@@H]2[C@H](NC(=O)[C@H](N)c3ccc(O)cc3)C(=O)N2[C@H]1C(=O)O; assay: as §4
# [42] = substrate: CO/N=C(\C(=O)N[C@@H]1C(=O)N2C(C(=O)[O-])=C(C[N+]3(C)CCCC3)CS[C@H]12)c1csc(N)n1; assay: as §4
# [43] = substrate: CO/N=C(\C(=O)N[C@@H]1C(=O)N2C(C(=O)O)=C(COC(N)=O)CS[C@H]12)c1ccco1; assay: as §4
# [44] = substrate: O=C(Cc1cccs1)N[C@@H]1C(=O)N2C(C(=O)[O-])=C(C[n+]3ccccc3)CS[C@H]12; assay: as §4
# [45] = substrate: C[C@@H](O)[C@H]1C(=O)N2C(C(=O)O)=C(S[C@@H]3CN[C@H](C(=O)N(C)C)C3)[C@H](C)[C@H]12; assay: (§5) Ratio of Kcat to Km for Chryseobacterium indologenes 597 metallo-beta-lactamase […] expressed in Escherichia coli DH5alpha by Michaelis-Menten equation
# [46] = substrate: CC1(C)S[C@@H]2[C@H](NC(=O)Cc3ccccc3)C(=O)N2[C@H]1C(=O)O; assay: as §5
# [47] = substrate: CO/N=C(\C(=O)N[C@@H]1C(=O)N2C(C(=O)O)=C(COC(C)=O)CS[C@H]12)c1csc(N)n1; assay: as §5
# [48] = substrate: CC1(C)S[C@@H]2[C@H](NC(=O)C(C(=O)O)c3ccccc3)C(=O)N2[C@H]1C(=O)O; assay: as §5
# [49] = substrate: C[C@@H](O)[C@H]1C(=O)N2C(C(=O)O)=C(SCCNC=N)C[C@H]12; assay: as §5
protein,measurement,setting,value
"Metallo-beta-lactamase type 2 (Flavobacterium meningosepticum), O08498 (protein) MLKKIKISLILALGLTSLQAFGQENPDVKIEKLKDNLYVYTTYNTFNGTKYAANAVYLVTDKGVVVIDCPWGEDKFKSFTDEIYKKHGKKVIMNIATHSHDDRAGGLEYFGKIGAKTYSTKMTDSILAKENKPRAQYTFDNNKSFKVGKSEFQVYYPGKGHTADNVVVWFPKEKVLVGGCIIKSADSKDLGYIGEAYVNDWTQSVHNIQQKFSGAQYVVAGHDDWKDQRSIQHTLDLINEYQQKQKASN",kcat/Km,[1],7.6 ×10⁵ /M/s
same,kcat/Km,[2],3.9 ×10⁶ /M/s
same,kcat/Km,[3],2.7 ×10⁷ /M/s
same,kcat/Km,[4],6.6 ×10³ /M/s
same,kcat/Km,[5],1.6 ×10⁶ /M/s
same,kcat/Km,[6],7.9 ×10⁵ /M/s
same,kcat/Km,[7],6.1 ×10⁶ /M/s
same,kcat/Km,[8],2 ×10⁶ /M/s
same,kcat/Km,[9],2 ×10² /M/s
same,kcat/Km,[10],1 ×10⁶ /M/s
same,kcat/Km,[11],1.4 ×10⁵ /M/s
"Metallo-beta-lactamase IND-2 (Chryseobacterium indologenes), Q9F923 (protein) MKKSIQLLMMSMFLSPLINAQVKDFVIEPPVKPNLYLYKSFGVFGGKEYSANAVYLTTKKGVVLFDVPWQKEQYQTLMDTIQKRHHLPVIAVFATHSHDDRAGDLSFYNQKGIKTYATAKTNELLKKDGKATSTEIIKTGKPYKIGGEEFMVDFLGEGHTVDNVVVWFPKYKVLDGGCLVKSRTATDLGYTGEANVKQWPETMRKLKTKYAQATLVIPGHDEWKGGGHVQHTLDLLDKN",kcat/Km,[12],1.8 ×10⁵ /M/s
same,kcat/Km,[13],4.6 ×10⁶ /M/s
same,kcat/Km,[14],4.5 ×10³ /M/s
same,kcat/Km,[15],1.2 ×10⁶ /M/s
same,kcat/Km,[16],9 ×10⁵ /M/s
same,kcat/Km,[17],5.9 ×10⁵ /M/s
same,kcat/Km,[18],4.5 ×10² /M/s
"Metallo-beta-lactamase IND-6 (Chryseobacterium indologenes), Q08I33 (protein) MKRRIQFFMVSMMLTPLFSAQVKDFVIEPPIKKNLYIYKTFGVFGGKEYSANSVYLVTKTGVVLFDVPWEKAQYQSLMDTIKKRHNLPVVAVFATHSHDDRAGDLSFFNNKGIKTYATPKTNQFLKRDGKATSTELIKPGKPYRFGGEEFVVDFLGEGHTADNVVVWFPKYKVLDGGCLVKSNSATDLGYIKEANLEQWPKTMHKLKTKYSEAVLIIPGHDEWKGGGHVEHTLELLDKK",Km,[19],3 µM
same,kcat,[19],19 s⁻¹
same,Km,[20],145 µM
same,kcat,[20],25 s⁻¹
same,Km,[21],43 µM
same,kcat,[21],115 s⁻¹
same,Km,[22],20 µM
same,kcat,[22],305 s⁻¹
same,Km,[23],22 µM
same,kcat,[23],6 s⁻¹
same,Km,[24],60 µM
same,kcat,[24],415 s⁻¹
same,Km,[25],33 µM
same,kcat,[25],8 s⁻¹
same,Km,[26],30 µM
same,kcat,[26],210 s⁻¹
same,Km,[27],13 µM
same,kcat,[27],50 s⁻¹
same,Km,[28],85 µM
same,kcat,[28],480 s⁻¹
same,Km,[29],> 300 µM
same,kcat,[29],> 1.2 s⁻¹
same,Km,[30],23 µM
same,kcat,[30],75 s⁻¹
same,Km,[31],90 µM
same,kcat,[31],490 s⁻¹
same,kcat/Km,[32],6.3 ×10⁶ /M/s
same,kcat/Km,[33],1.7 ×10⁵ /M/s
same,kcat/Km,[34],2.7 ×10⁶ /M/s
same,kcat/Km,[35],1.5 ×10⁷ /M/s
same,kcat/Km,[36],2.7 ×10⁵ /M/s
same,kcat/Km,[37],6.9 ×10⁶ /M/s
same,kcat/Km,[38],2.4 ×10⁵ /M/s
same,kcat/Km,[39],7 ×10⁶ /M/s
same,kcat/Km,[40],3.8 ×10⁶ /M/s
same,kcat/Km,[41],5.6 ×10⁶ /M/s
same,kcat/Km,[42],4 ×10³ /M/s
same,kcat/Km,[43],3.3 ×10⁶ /M/s
same,kcat/Km,[44],5.4 ×10⁶ /M/s
"IND-like metallo-beta-lactamase (Chryseobacterium indologenes), Q6JE29 (protein) MKKRIQFFMVSMMLAPMFNAQVKDFVIEPPIKNNLHIYKTFGVFGGKEYSANSVYLVTKKGVVLFDVPWEKAQYQSLMDTIKKRHNLPVIAVFATHSHDDRAGDLSFFNNKGIKTYATSKTNEFLKKDGKATSTEIIKTGKPYRIGGEEFTVDFLGEGHTADNVVVWFPKYNVLDGGCLVKSNSATDLGYIKEANVEQWPITIDKLKAKYSKATLIIPGHDDWKGGGHVEHTLELLNKK",kcat/Km,[45],1.5 ×10⁴ /M/s
same,kcat/Km,[46],8.4 ×10⁵ /M/s
same,kcat/Km,[47],3.1 ×10⁴ /M/s
same,kcat/Km,[48],5.3 ×10⁴ /M/s
same,kcat/Km,[49],2.4 ×10⁴ /M/s
